Like-named read-outs stand apart in the source and are kept apart here. Positions of bridges follow the written chain, without caps; N, C: chain ends. No end group written: not given here.
What was measured:
[1] = target: T1, LRP1 cluster II (LRP1-C2) (Homo sapiens, UniProt Q07954); assay: Inhibition of RAP d3 binding to LRP1-C2 (ELISA)
T1 construct: recombinant human LRP1 cluster II (amino acids 786-1165, with C-terminal Fc tag); purchased R&D Systems; host or cells: NS0
T1 sequence (Q07954 786-1165): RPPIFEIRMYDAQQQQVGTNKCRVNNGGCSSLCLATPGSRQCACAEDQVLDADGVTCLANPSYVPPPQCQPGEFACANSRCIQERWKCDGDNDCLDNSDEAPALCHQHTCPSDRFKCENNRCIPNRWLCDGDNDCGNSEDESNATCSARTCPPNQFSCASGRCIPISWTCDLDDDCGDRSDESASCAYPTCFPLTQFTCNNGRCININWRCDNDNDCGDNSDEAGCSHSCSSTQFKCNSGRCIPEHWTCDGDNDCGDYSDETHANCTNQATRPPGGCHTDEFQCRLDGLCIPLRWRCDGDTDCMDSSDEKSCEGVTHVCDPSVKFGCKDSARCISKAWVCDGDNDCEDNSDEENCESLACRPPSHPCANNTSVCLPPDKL
Protocol: Binding inhibition assays were also carried out to determine the ability of the mRAPc peptide to interfere with RAP d3 binding to LRP1 (cluster II), as well as binding of LRP ligands α-2-macroglobulin and uPA/PAI-1. To allow complexation with streptavidin or an anti-biotin antibody, the mRAPc peptide was fitted with an N-terminal biotin residue separated from the RAP sequence by a pentapeptide linker (GGSGG). Solid phase binding assays were performed using recombinant human LRP1 cluster II (amino acids 786-1165, with C-terminal Fc tag, 1 μg, R&D Systems, Minneapolis, Minn.) to coat Nunc MAXISORP™ 96-well plates in TBS pH 8 supplemented with 5 mM CaCl2 (TBSC) overnight at 4° C. Data was generated by ELISA assay. Wells were washed with TBSC and blocked with TBSC containing 2% BSA. In assays involving complexes between streptavidin and biotinylated peptide, LRP1 ligands (RAP d3 (2 nM), trypsin-activated α-2-macroglobulin (1 nM) or uPA/PAI-1 (10 nM) were incubated with the immobilized receptor, in the presence or absence of inhibitors, for 2 hours in the above blocking buffer supplemented with 0.05% Tween-20 at room temperature. In assays involving complexes of the anti-biotin antibody and biotinylated peptide, all inhibitor solutions were pre-incubated with immobilized LRP1-C2 prior to washing and subsequent incubation with ligand. Since the ligand binding competence of CR pairs requires calcium, identical binding reactions were done in the presence of 50 mM EDTA to provide a measure of non-specific binding. Control wells contained no added inhibitor. Wells were washed with TBS supplemented with 5 mM CaCl2 and 0.05% Tween-20. Bound ligand was detected with either anti-S-peptide-HRP conjugate (Abcam, Cambridge, Mass.), anti-α-2-macroglobulin-HRP or anti-PAI-1-HRP. Excess HRP conjugate was removed and wells washed. Color was developed using TMB reagents (BioRad, Hercules, Calif.). Absorption at 450 nm was measured with a microplate spectrophotometer (Molecular Devices, Palo Alto, Calif.).
The ability of mRAPc, in the presence and absence of either streptavidin or anti-biotin antibody, to inhibit binding of recombinant RAP d3 to LRP1-C2 was measured. […] The multifold enhancement of inhibition seen in the presence of streptavidin is consistent with an improvement in avidity upon multimerization of the minimized RAP domain.
Given the relatively weak monovalent affinity of the anti-biotin antibody for biotin (low nanomolar KD), it was hypothesized that preassembly of a multivalent complex consisting of two, suitably proximate, receptor-bound peptides and a single antibody would stabilize the peptide-antibody complex. Therefore, the antibody and peptide, in a molar ratio of one to three, was incubated with the immobilized receptor prior to washing and subsequent addition of the RAP d3 ligand. The same procedure was performed for the controls; peptide alone, antibody alone and RAP. […] Next the effect of the multimerized mRAPc was determined. The multimerized mRAPc was compared to the mRAPc monomer and full-length RAP in the inhibition of binding of two other ligands to LRP1-C2, trypsin-activated α-2-macroglobulin and the uPA/PAI-1 complex, at a single ligand concentration. […] In both cases, the complex of streptavidin and mRAPc inhibited binding with an EC50 approximately midway between RAP and the mRAPc monomer.

rhLRP1 cluster II = target: T2, rhLRP1 cluster II (Homo sapiens, UniProt Q07954); assay: Solid phase binding assay of RAP peptides
T2 construct: rhLRP1 cluster II (aa 786-1165, C-terminal Fc, 1 μg); purchased R&D Systems; host or cells: NS0
T2 sequence (Q07954 786-1165): T1 sequence (Q07954 786-1165)
Protocol: Solid phase binding assays were carried out as follows. Recombinant murine VLDLR ectodomain (aa 1-798, C-terminal hexahistidine, 1 μg) or rhLRP1 cluster II (aa 786-1165, C-terminal Fc, 1 μg) were bound to Nunc Maxisorp™ 96-well plates in TBS pH 8 supplemented with 5 mM CaCl2 (TBSC) overnight at 4° C. Wells were washed with TBSC and then blocked with TBSC containing 2% BSA. Peptides were then incubated with the immobilized receptor at a range of concentrations for 2 hours in the above blocking buffer supplemented with 0.05% Tween-20 at room temperature. Identical binding reactions were done in the presence of 50 mM EDTA to provide a measure of non-specific binding. Control wells contained no added peptide. Additional controls established absence of cross-reactivity between antibodies and receptors. Wells were washed with TBSTC and bound peptides detected with streptavidin-HRP (Pierce) or polyclonal anti-RAP (1:1,000, Raptor Pharmaceutical). […] Absorption at 450 nm was measured with a microplate spectrophotometer (Molecular Devices). […]
The binding affinity of the peptides for LRP1 and VLDLR, another receptor in the LDLR family, was measured as follows. […] Bound peptides were detected with streptavidin-HRP after extensive washing. Binding values measured in the presence of EDTA were subtracted from values measured in the absence of EDTA in order to determine calcium-dependent binding levels. […]

[2] = target: LRP1, LRP1B, LRP2, SorLA, apoER2 and VLDLR; conditions: read-out: dissociation constants; cited from earlier work
LDLR, LRP5 and LRP6 = conditions: cited from earlier work

streptavidin: streptavidin alone, control
inhibitory effect (in words) ([1]; ligand and inhibitor incubated together): no inhibitory effect

CEAKIEKHNHYQKQLEIAHEKLRHAESVGDGERVSRSREKHALLEGRTKELGYTVKKHGC (disulfide 1-60) [mRAP-14c]
Kd (rhLRP1 cluster II): ~21 nM

RAP: receptor-associated protein, mature human RAP (SEQ ID NO: 95)
EC50 better than peptide assembled on streptavidin ([1]; FIG. 14A): about 8 fold | EC50 improvement over monomeric mRAPc peptide ([1]; FIG. 14A): 64 fold | EC50 ([1]; inhibitor pre-incubated with immobilized receptor, washed, then ligand, FIG. 14B, read-out: EC50 of inhibition of RAP d3 binding): 0.3 nM | EC50 ([1]; ligand and inhibitor incubated together, FIG. 14A, read-out: degree of inhibition (EC50) of RAP d3 binding): 0.5 nM | Kd [2]: < 5 nM | affinity lower than for LRP1 (LDLR, LRP5 and LRP6): at least 10 fold
